Assay [1] concerns the target T1, human PD-L1 Fc (R&D Systems, 156-B7) (human, UniProt Q9NZQ7 19-239).
T1 construct: Bought protein; not shown: Fc tag of the bought fusion protein
The assay is described as follows: SPR, BIAcore T200; mAb captured on Protein L, PD-L1 Fc injected. In general terms: SPR reads the build-up and loss of mass on a sensor chip optically.

In assay [2] the target is T2, recombinant Fc-tagged human LAG-3 (R&D Systems, 2319-L3-050) (human, UniProt P18627 23-450).
T2 construct: Bought protein; also called LAG-3 Fc; human LAG-3-Fc; not shown: Fc tag of the bought fusion protein
T2 sequence: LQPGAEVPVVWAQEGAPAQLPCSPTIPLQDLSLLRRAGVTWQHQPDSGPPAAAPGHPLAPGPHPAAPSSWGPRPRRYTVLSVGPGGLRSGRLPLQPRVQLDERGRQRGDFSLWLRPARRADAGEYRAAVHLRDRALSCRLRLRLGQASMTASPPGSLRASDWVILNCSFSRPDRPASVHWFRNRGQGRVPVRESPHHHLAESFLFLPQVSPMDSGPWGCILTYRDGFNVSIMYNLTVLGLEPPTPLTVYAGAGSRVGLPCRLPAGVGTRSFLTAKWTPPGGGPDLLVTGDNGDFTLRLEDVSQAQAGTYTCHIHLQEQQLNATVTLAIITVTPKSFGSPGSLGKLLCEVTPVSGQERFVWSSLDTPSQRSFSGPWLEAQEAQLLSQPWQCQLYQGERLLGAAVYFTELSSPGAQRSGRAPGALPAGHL
The assay is described as follows: SPR, mAb captured on Protein L, human LAG-3 Fc injected (from 0.5 nM). Here is the method:
Protein L (Thermo, 21189) was immobilized on flow cells 1 and 2 of a Series S CM5 chip (GE Healthcare, BR-1005-30) by amine coupling (GE Healthcare, BR-1000-50) to a surface density of 2000 RU by following the manufacturer's instructions for the BIAcore T200 instrument. […] The association time was 3 min and the dissociation time was 6 min. Running buffer was HBS-P (GE Healthcare, BR-1003-68). Both flow cells were regenerated by injecting 10 mM sodium hydroxide (NaOH) at a flow rate of 100 μl/min for 20 seconds. The data were analysed by double referencing against the blank flow cell.
The binding kinetics were fit with a 1:1 Langmuir model to generate binding association (kₐ) and dissociation (kd) rates. Equilibrium binding constants (KD) were calculated by dividing the dissociation rate by the association rate for each sample. Data analysis was performed with BiaEvaluation software version 3.2.

The source of these data is patent US20220185894A1 (F STAR THERAPEUTICS, published 2022).

For orientation: Kd means a measure of binding affinity in units of concentration. Read a high Kd as a looser complex. In general, koff refers to a measure of how fast the partners let go of each other. A high value points to fast dissociation. What is called kon is the second-order rate constant of association.

T1 sequence (Q9NZQ7 19-239 limits assumed): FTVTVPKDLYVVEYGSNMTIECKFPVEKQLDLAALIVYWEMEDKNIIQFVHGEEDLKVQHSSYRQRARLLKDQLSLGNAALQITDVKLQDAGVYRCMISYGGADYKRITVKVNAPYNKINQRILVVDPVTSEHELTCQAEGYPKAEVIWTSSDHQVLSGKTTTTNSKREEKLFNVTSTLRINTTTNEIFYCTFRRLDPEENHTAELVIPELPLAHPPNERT

B1: anti-human PD-L1 mAb 84G09 with LALA mutation (antibody, human IgG1, kappa, L234A L235A)
heavy: not shown
light: DIQMTQSPSSLSASVGDRVTITCRASQSISSYLNWYQQKPGKAPKPLIYVASSLQSGVPSSFSGSGSGTDFTLTISSLQPEDFATYYCQQSYSNPITFGQGTRLEIKRTVAAPSVFIFPPSDEQLKSGTASVVCLLNNFYPREAKVQWKVDNALQSGNSQESVTEQDSKDSTYSLSSTLTLSKADYEKHKVYACEVTHQGLSSPVTKSFNRGEC
notes: Human IgG1 with LALA; also called 84G09LALA; 84G09 LALA
For the molecule B1, in assay [1], the Kd is 1.2 nM, the off-rate (koff) was determined as 0.00046 s⁻¹ and the kon came out at 380000 M⁻¹ s⁻¹. Further, the binding result in assay [2] is “no binding”.
